{"source": "patent US20190038796A1", "target": "EGF-MMP (recombinant epidermal growth factor with N-terminal PLP reactive site AKT, polyhistidine tag and MMP cleavage site VPLSLYSG)", "sequence (chain, as listed by the source limits assumed)": "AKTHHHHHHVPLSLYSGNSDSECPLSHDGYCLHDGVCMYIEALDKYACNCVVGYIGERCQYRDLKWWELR", "test": "cell-based or functional assay", "data": [{"substance": "Recombinant, human pro-MMP-9 expressed in CHO cells, activated with amino-phenyl mercuric acetate (APMA) (from UniProt P14780 20-707) (enzyme)", "values": [{"measurement": "EGF released from the conjugated PCL fiber mat after 4 hours of incubation with MMP-9 (ELISA)", "value": 20, "unit": "ng/mg"}, {"measurement": "EGF released from the conjugated PCL fiber mat over the first 10 minutes after the enzyme was added (ELISA) (ng EGF/mg PCL)", "value": 11}]}]}
